Test results from paper PMC13544220, “Glycemic and bodyweight effects of GIPR coding variation reflect differences in surface expression and intrinsic functional impairment” (Science Advances, 2026).

Assays:
Type in all cases: cell-based, human
[1] = system: wild-type and variant SNAP-GIPR; experiment: Surface SNAP-GIPR expression (SNAP-tag labelling) in AD293 cells; conditions: for AD293 Surface: Fig S3E, mean; for Surface SNAP-GIPR expression: sheet Fig 1C;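 on all read-outs here: scaled to the experimental average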
In short: (§1)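 Read-out: whole-cell fluorescence of surface-only SNAP label (Alexa Fluor 647, 500 nM, 10 min, RT), wide-field 20X, several FOVs per well. Flat-field corrected, phase-contrast masked, nontransfected-well signal subtracted; normalized to experiment mean or wild-type.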

[2] = system: wild-type and variant SNAP-GIPR; experiment: Surface SNAP-GIPR expression (SNAP-tag labelling) in INS-1 cells; conditions: Fig 4G; Mean
In short: as §1

[3] = system: wild-type and variant SNAP-GIPR; experiment: Single-concentration GIP cAMP response by HTRF in AD293 cells; conditions: Fig S3F, HTRF, mean;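 further: ratio to experiment-wide average response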
Description: (§2) All variants were tested in parallel on each occasion to control for transfection efficiency differences between experiments.

[4] = system: wild-type and variant SNAP-GIPR; experiment: Single-concentration GIP cAMP response by HTRF in INS-1 cells; conditions: Fig S3E, mean
Description: as §2

[5] = system: wild-type and variant SNAP-GIPR; experiment: cADDis cAMP imaging in AD293 cells, ensemble, expression-matched and per decile; conditions: Fig S3F, cADDis, mean;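 further: Ensemble cells as % of IBMX/FSK response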
In short: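 AD293 cells were transfected with SNAP-GIPR constructs and cotransduced with the cADDis Green Up cAMP sensor, then labeled after 24 h with 500 nM SNAP-Surface Alexa Fluor 647. Per-cell cADDis intensity was tracked at 37°C in KRBH with 6 mM glucose and 0.1% BSA.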

[6] = system: wild-type and variant SNAP-GIPR; experiment: Constitutive and agonist-mediated internalization, reversible SNAP-tag labelling, AD293 cells; set-up: key to Internalisation, Vehicle / Internalisation, +GIP / Internalisation, GIP-only: % internalization: residual fluorescence after Mesna vs pre-Mesna; Surface expression: unit not given here; conditions: Mean; for +GIP internalisation (100 nM) / GIP-specific internalisation (100 nM) / Constitutive internalisation (100 nM) / Surface expression: Fig 4E; for +GIP internalisation (100 nM) / GIP-specific internalisation (100 nM): GIP 100 nM; for Internalisation, +GIP / Internalisation, GIP-only / Internalisation, Vehicle: Fig S4C, AD293
In short: (§3)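 Percentage internalization calculated as specific SNAP fluorescence remaining after 10 min Mesna exposure, relative to pre-Mesna signal, imaged in TNE buffer (pH 8.6).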

[7] = system: wild-type and variant SNAP-GIPR; experiment: Constitutive and agonist-mediated internalization, reversible SNAP-tag labelling, INS-1 cells; set-up: key to Internalisation, GIP-only / Internalisation, Vehicle / Internalisation, +GIP: % internalization: residual fluorescence after Mesna vs pre-Mesna; conditions: Mean; for +GIP internalisation (100 nM) / GIP-specific internalisation (100 nM) / Constitutive internalisation (100 nM): Fig 4G; for +GIP internalisation (100 nM) / GIP-specific internalisation (100 nM): GIP 100 nM; for Internalisation, +GIP / Internalisation, GIP-only / Internalisation, Vehicle: Fig S4C, INS-1
In short: as §3

[8] = column repeated, paired with cAMP 100 nM

B1: L100F (protein, UniProt P48546 22-466, looked up, variant L100F)
Gastric inhibitory …: RAETGSKGQTAGELYQRWERYRRECQETLAAAEPPSGLACNGSFDMYVCWDYAAPNATARASCPWYLPWHHHVAAGFVFRQCGSDGQWGLWRDHTQCENPEKNEAFLDQRLILERLQVMYTVGYSLSLATLLLALLILSLFRRLHCTRNYIHINLFTSFMLRAAAILSRDRLLPRPGPYLGDQALALWNQALAACRTAQIVTQYCVGANYTWLLVEGVYLHSLLVLVGGSEEGHFRYYLLLGWGAPALFVIPWVIVRYLYENTQCWERNEVKAIWWIIRTPILMTILINFLIFIRILGILLSKLRTRQMRCRDYRLRLARSTLTLVPLLGVHEVVFAPVTEEQARGALRFAKLGFEIFLSSFQGFLVSVLYCFINKEVQSEIRRGWHHCRLRRSLGEEQRQLPERAFRALPSGSGPGEVPTSRGLSSGTLPGPGNEASRELESYC
AD293 Surface [1, 8]: 1.501
AD293 Surface ([1]; paired with cAMP 100 pM): 1.501
Surface SNAP-GIPR expression ([1]; replicate 1): 1.524
Surface SNAP-GIPR expression ([1]; replicate 2): 1.675
Surface SNAP-GIPR expression ([1]; replicate 3): 1.679
Surface SNAP-GIPR expression ([1]; replicate 4): 1.13
Surface SNAP-GIPR expression ([1]; replicate 5): 1.597
Surface SNAP-GIPR expression ([1]; replicate 6): 1.532
Surface SNAP-GIPR expression ([1]; replicate 7): 1.271
Surface SNAP-GIPR expression ([1]; replicate 8): 1.313
Surface SNAP-GIPR expression ([1]; replicate 9): 1.282
Surface SNAP-GIPR expression ([1]; replicate 10): 1.519
Surface SNAP-GIPR expression ([1]; replicate 11): 1.303
Surface SNAP-GIPR expression ([1]; replicate 12): 1.295
Surface SNAP-GIPR expression ([1]; replicate 13): 1.669
Surface SNAP-GIPR expression ([1]; replicate 14): 1.299
Surface SNAP-GIPR expression ([1]; replicate 15): 1.522
Surface SNAP-GIPR expression ([1]; replicate 16): 1.442
Surface SNAP-GIPR expression ([1]; replicate 17): 1.643
Surface SNAP-GIPR expression ([1]; replicate 18): 1.736
Surface SNAP-GIPR expression ([1]; replicate 19): 1.668
Surface SNAP-GIPR expression ([1]; replicate 20): 1.712
Surface SNAP-GIPR expression ([1]; replicate 21): 1.622
Surface SNAP-GIPR expression ([1]; replicate 22): 1.675
Surface SNAP-GIPR expression ([1]; replicate 23): 1.531
Surface SNAP-GIPR expression ([1]; replicate 24): 1.559
Surface SNAP-GIPR expression ([1]; replicate 25): 1.328
Surface SNAP-GIPR expression ([1]; replicate 26): 1.878
Surface SNAP-GIPR expression ([1]; replicate 27): 1.259
Surface SNAP-GIPR expression ([1]; replicate 28): 1.697
Surface SNAP-GIPR expression ([1]; replicate 29): 1.401
Surface SNAP-GIPR expression ([1]; replicate 30): 1.456
Surface SNAP-GIPR expression ([1]; replicate 31): 1.661
Surface SNAP-GIPR expression ([1]; replicate 32): 1.58
Surface SNAP-GIPR expression ([1]; replicate 33): 1.459
Surface SNAP-GIPR expression ([1]; replicate 34): 1.249
Surface SNAP-GIPR expression ([1]; replicate 35): 1.682
Surface SNAP-GIPR expression ([1]; replicate 36): 1.611
Surface SNAP-GIPR expression ([1]; replicate 37): 1.381
Surface SNAP-GIPR expression ([1]; replicate 38): 1.301
Surface SNAP-GIPR expression ([1]; replicate 39): 1.418
Surface SNAP-GIPR expression ([1]; replicate 40): 1.406
Surface SNAP-GIPR expression ([1]; replicate 41): 1.553
Surface expression [2]: 1.643
AD293 100 pM HTRF [3]: 1.607
AD293 100 nM HTRF [3]: 1.598
INS-1 cAMP (100 nM) [4]: 1.416
AD293 100 pM cADDis [5]: 37.4091
AD293 100 nM cADDis [5]: 36.85
+GIP internalisation (100 nM) [6]: 0.8469
GIP-specific internalisation (100 nM) [6]: 0.2452
Constitutive internalisation (100 nM) [6]: 0.6017
Surface expression [6]: 1.442
Internalisation, +GIP [6]: 58.6424
Internalisation, GIP-only [6]: 16.9646
Internalisation, Vehicle [6]: 41.6779
+GIP internalisation (100 nM) [7]: 0.7901
GIP-specific internalisation (100 nM) [7]: 0.1883
Constitutive internalisation (100 nM) [7]: 0.6018
Internalisation, +GIP [7]: 47.6567
Internalisation, GIP-only [7]: 11.2267
Internalisation, Vehicle [7]: 36.43

B2: A207V (protein)
chain: RAETGSKGQTAGELYQRWERYRRECQETLAAAEPPSGLACNGSFDMYVCWDYAAPNATARASCPWYLPWHHHVAAGFVLRQCGSDGQWGLWRDHTQCENPEKNEAFLDQRLILERLQVMYTVGYSLSLATLLLALLILSLFRRLHCTRNYIHINLFTSFMLRAAAILSRDRLLPRPGPYLGDQALVLWNQALAACRTAQIVTQYCVGANYTWLLVEGVYLHSLLVLVGGSEEGHFRYYLLLGWGAPALFVIPWVIVRYLYENTQCWERNEVKAIWWIIRTPILMTILINFLIFIRILGILLSKLRTRQMRCRDYRLRLARSTLTLVPLLGVHEVVFAPVTEEQARGALRFAKLGFEIFLSSFQGFLVSVLYCFINKEVQSEIRRGWHHCRLRRSLGEEQRQLPERAFRALPSGSGPGEVPTSRGLSSGTLPGPGNEASRELESYC
AD293 Surface [1, 8]: 1.462
AD293 Surface ([1]; paired with cAMP 100 pM): 1.462
Surface SNAP-GIPR expression ([1]; replicate 1): 1.611
Surface SNAP-GIPR expression ([1]; replicate 2): 2.305
Surface SNAP-GIPR expression ([1]; replicate 3): 1.718
Surface SNAP-GIPR expression ([1]; replicate 4): 1.422
Surface SNAP-GIPR expression ([1]; replicate 5): 1.389
Surface SNAP-GIPR expression ([1]; replicate 6): 1.632
Surface SNAP-GIPR expression ([1]; replicate 7): 1.104
Surface SNAP-GIPR expression ([1]; replicate 8): 1.459
Surface SNAP-GIPR expression ([1]; replicate 9): 1.373
Surface SNAP-GIPR expression ([1]; replicate 10): 1.394
Surface SNAP-GIPR expression ([1]; replicate 11): 1.581
Surface SNAP-GIPR expression ([1]; replicate 12): 1.452
Surface SNAP-GIPR expression ([1]; replicate 13): 1.286
Surface SNAP-GIPR expression ([1]; replicate 14): 1.785
Surface SNAP-GIPR expression ([1]; replicate 15): 1.758
Surface SNAP-GIPR expression ([1]; replicate 16): 1.437
Surface SNAP-GIPR expression ([1]; replicate 17): 1.378
Surface SNAP-GIPR expression ([1]; replicate 18): 1.497
Surface SNAP-GIPR expression ([1]; replicate 19): 1.272
Surface SNAP-GIPR expression ([1]; replicate 20): 1.519
Surface SNAP-GIPR expression ([1]; replicate 21): 1.502
Surface SNAP-GIPR expression ([1]; replicate 22): 1.331
Surface SNAP-GIPR expression ([1]; replicate 23): 1.374
Surface SNAP-GIPR expression ([1]; replicate 24): 1.462
Surface SNAP-GIPR expression ([1]; replicate 25): 1.289
Surface SNAP-GIPR expression ([1]; replicate 26): 1.598
Surface SNAP-GIPR expression ([1]; replicate 27): 1.353
Surface SNAP-GIPR expression ([1]; replicate 28): 1.177
Surface SNAP-GIPR expression ([1]; replicate 29): 1.377
Surface SNAP-GIPR expression ([1]; replicate 30): 1.555
Surface SNAP-GIPR expression ([1]; replicate 31): 1.582
Surface SNAP-GIPR expression ([1]; replicate 32): 1.61
Surface SNAP-GIPR expression ([1]; replicate 33): 1.695
Surface SNAP-GIPR expression ([1]; replicate 34): 1.496
Surface SNAP-GIPR expression ([1]; replicate 35): 1.543
Surface SNAP-GIPR expression ([1]; replicate 36): 1.703
Surface SNAP-GIPR expression ([1]; replicate 37): 1.143
Surface SNAP-GIPR expression ([1]; replicate 38): 1.04
Surface SNAP-GIPR expression ([1]; replicate 39): 1.054
Surface SNAP-GIPR expression ([1]; replicate 40): 1.392
Surface SNAP-GIPR expression ([1]; replicate 41): 1.284
Surface expression [2]: 1.239
AD293 100 pM HTRF [3]: 1.772
AD293 100 nM HTRF [3]: 1.3964
INS-1 cAMP (100 nM) [4]: 1.4138
AD293 100 pM cADDis [5]: 35.8816
AD293 100 nM cADDis [5]: 38.26
+GIP internalisation (100 nM) [6]: 0.7742
GIP-specific internalisation (100 nM) [6]: 0.2212
Constitutive internalisation (100 nM) [6]: 0.553
Surface expression [6]: 1.34
Internalisation, +GIP [6]: 58.1109
Internalisation, GIP-only [6]: 16.6766
Internalisation, Vehicle [6]: 41.4343
+GIP internalisation (100 nM) [7]: 0.5824
GIP-specific internalisation (100 nM) [7]: 0.1595
Constitutive internalisation (100 nM) [7]: 0.4229
Internalisation, +GIP [7]: 49.74
Internalisation, GIP-only [7]: 13.34
Internalisation, Vehicle [7]: 36.4
